Measurements published in patent US20210246166A1 (Bayer, published 2021).
Numbered stars: 1 amine (or outer) side, 2 acyl side, 3 side chain; on linkers, the order of the positions; unused ones are H or OH. Bridge positions count the residues as written; N and C are the ends. Square brackets hold non-standard residues; d marks the D form. Ends that are not written are not given here. * marks the point of attachment. X15 = (3S)‑2‑azaspiro(4.4)nonane‑3‑carboxylic acid, O=C([C@@H]1CC2(CCCC2)CN1[*:1])[*:2]; X11 = (S)‑Piperidine‑3‑carboxylic acid, O=C([C@H]1CCCN([*:1])C1)[*:2]; X14 = (2,4-dioxoimidazolidin-1-yl)acetic acid, O=C1CN(CC(=O)*)C(=O)N1; Nip(3R) = O=C([C@@H]1CCCN([*:1])C1)[*:2]; Oic = O=C(O)[C@@H]1C[C@@H]2CCCC[C@@H]2N1; βPro(3R) = O=C([C@@H]1CCN([*:1])C1)[*:2]; PEG6 = NCCOCCOCCOCCOCCOCCOCCC(=O)O; tBuAla = CC(C)(C)C[C@H](N)C(=O)O; Pen = CC(C)(S)[C@H](N)C(=O)O; PEG3 = NCCOCCOCCOCCC(=O)O; Orn = NCCC[C@H](N)C(=O)O; Ahx = NCCCCCC(=O)O; Sar = CNCC(=O)O

T1: Recombinant human MASP1 enzyme (fragment corresponding to amino acids 297-699, C-terminal His Tag) (human, UniProt P48740 297-699)
T1 sequence: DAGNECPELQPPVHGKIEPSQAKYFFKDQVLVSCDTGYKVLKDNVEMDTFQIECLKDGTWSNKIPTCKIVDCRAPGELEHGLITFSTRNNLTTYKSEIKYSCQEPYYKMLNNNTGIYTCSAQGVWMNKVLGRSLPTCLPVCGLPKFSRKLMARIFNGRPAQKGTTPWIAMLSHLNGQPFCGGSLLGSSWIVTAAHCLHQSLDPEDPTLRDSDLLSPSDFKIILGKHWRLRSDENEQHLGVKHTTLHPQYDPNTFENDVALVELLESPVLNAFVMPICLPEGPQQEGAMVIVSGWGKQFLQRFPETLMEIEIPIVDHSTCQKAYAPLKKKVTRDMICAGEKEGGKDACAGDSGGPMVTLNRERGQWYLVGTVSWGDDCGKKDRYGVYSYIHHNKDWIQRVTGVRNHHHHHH

B1: ((R)-Piperidine-3-carboxylic acid)-IC+SRSLP-(Oic)-I-(Pen)+I-OH (peptide)
peptide: [Nip(3R)]ICSRSLP[Oic]I[Pen]I-OH
modifications: disulfide 3-11; N-terminus assumed
SMILES: CC[C@H](C)[C@H](NC(=O)[C@H]1NC(=O)[C@H]([C@@H](C)CC)NC(=O)[C@@H]2C[C@@H]3CCCC[C@@H]3N2C(=O)[C@@H]2CCCN2C(=O)[C@H](CC(C)C)NC(=O)[C@H](CO)NC(=O)[C@H](CCCNC(=N)N)NC(=O)[C@H](CO)NC(=O)[C@@H](NC(=O)[C@@H](NC(=O)[C@@H]2CCCNC2)[C@@H](C)CC)CSSC1(C)C)C(=O)O
B2: ((N-Me)G)-IC+SRSLP-(Oic)-I-(Pen)+IP-(PEG5(22 atoms))-OH (peptide)
peptide: [Sar]ICSRSLP[Oic]I[Pen]IP[PEG6]-OH
modifications: disulfide 3-11; N-terminus assumed
SMILES: CC[C@H](C)[C@H](NC(=O)CNC)C(=O)N[C@H]1CSSC(C)(C)[C@@H](C(=O)N[C@H](C(=O)N2CCC[C@H]2C(=O)NCCOCCOCCOCCOCCOCCOCCC(=O)O)[C@@H](C)CC)NC(=O)[C@H]([C@@H](C)CC)NC(=O)[C@@H]2C[C@@H]3CCCC[C@@H]3N2C(=O)[C@@H]2CCCN2C(=O)[C@H](CC(C)C)NC(=O)[C@H](CO)NC(=O)[C@H](CCCNC(=N)N)NC(=O)[C@H](CO)NC1=O
B3: ((N-Me)G)-IC+SRSLP-(Oic)-I-(Pen)+IPGD-OH (peptide)
peptide: [Sar]ICSRSLP[Oic]I[Pen]IPGD-OH
modifications: disulfide 3-11; N-terminus assumed
SMILES: CC[C@H](C)[C@H](NC(=O)CNC)C(=O)N[C@H]1CSSC(C)(C)[C@@H](C(=O)N[C@H](C(=O)N2CCC[C@H]2C(=O)NCC(=O)N[C@@H](CC(=O)O)C(=O)O)[C@@H](C)CC)NC(=O)[C@H]([C@@H](C)CC)NC(=O)[C@@H]2C[C@@H]3CCCC[C@@H]3N2C(=O)[C@@H]2CCCN2C(=O)[C@H](CC(C)C)NC(=O)[C@H](CO)NC(=O)[C@H](CCCNC(=N)N)NC(=O)[C@H](CO)NC1=O
B4: ((S)-Piperidine-3-carboxylic acid)-IC+SRSLP-(Oic)-I-(Pen)+I-OH (peptide)
peptide: [X11]ICSRSLP[Oic]I[Pen]I-OH
modifications: disulfide 3-11; N-terminus assumed
SMILES: CC[C@H](C)[C@H](NC(=O)[C@H]1NC(=O)[C@H]([C@@H](C)CC)NC(=O)[C@@H]2C[C@@H]3CCCC[C@@H]3N2C(=O)[C@@H]2CCCN2C(=O)[C@H](CC(C)C)NC(=O)[C@H](CO)NC(=O)[C@H](CCCNC(=N)N)NC(=O)[C@H](CO)NC(=O)[C@@H](NC(=O)[C@@H](NC(=O)[C@H]2CCCNC2)[C@@H](C)CC)CSSC1(C)C)C(=O)O
B5: ((N-Me)G)-IC+SRSLP-(Oic)-I-(Pen)+IPDD-OH (peptide)
peptide: [Sar]ICSRSLP[Oic]I[Pen]IPDD-OH
modifications: disulfide 3-11; N-terminus assumed
SMILES: CC[C@H](C)[C@H](NC(=O)CNC)C(=O)N[C@H]1CSSC(C)(C)[C@@H](C(=O)N[C@H](C(=O)N2CCC[C@H]2C(=O)N[C@@H](CC(=O)O)C(=O)N[C@@H](CC(=O)O)C(=O)O)[C@@H](C)CC)NC(=O)[C@H]([C@@H](C)CC)NC(=O)[C@@H]2C[C@@H]3CCCC[C@@H]3N2C(=O)[C@@H]2CCCN2C(=O)[C@H](CC(C)C)NC(=O)[C@H](CO)NC(=O)[C@H](CCCNC(=N)N)NC(=O)[C@H](CO)NC1=O
B6: ((N-Me)G)-IC+SRSLP-(Oic)-I-(Pen)+IP-((R)-Pyrrolidine-3-carboxylic acid)-OH (peptide)
peptide: [Sar]ICSRSLP[Oic]I[Pen]IP[βPro(3R)]-OH
modifications: disulfide 3-11; N-terminus assumed
SMILES: CC[C@H](C)[C@H](NC(=O)CNC)C(=O)N[C@H]1CSSC(C)(C)[C@@H](C(=O)N[C@H](C(=O)N2CCC[C@H]2C(=O)N2CC[C@@H](C(=O)O)C2)[C@@H](C)CC)NC(=O)[C@H]([C@@H](C)CC)NC(=O)[C@@H]2C[C@@H]3CCCC[C@@H]3N2C(=O)[C@@H]2CCCN2C(=O)[C@H](CC(C)C)NC(=O)[C@H](CO)NC(=O)[C@H](CCCNC(=N)N)NC(=O)[C@H](CO)NC1=O
B7: ((N-Me)G)-IC+SRSLP-(Oic)-I-(Pen)+IP-(*Dap)-OH (peptide)
peptide: [Sar]ICSRSLP[Oic]I[Pen]IPX-OH
modifications: disulfide 3-11; not fully specified (residue 14); printed as ((N-Me)G)-IC+SRSLP-(Oic)-I-(Pen)+IP-(*Dap)-OH; also: C-terminal Dap joined through its 3-amino group
B8: (Orn)-IC+SRSLP-(Oic)-I-(Pen)+IPD-OH (peptide)
peptide: [Orn]ICSRSLP[Oic]I[Pen]IPD-OH
modifications: disulfide 3-11; N-terminus assumed
SMILES: CC[C@H](C)[C@H](NC(=O)[C@@H](N)CCCN)C(=O)N[C@H]1CSSC(C)(C)[C@@H](C(=O)N[C@H](C(=O)N2CCC[C@H]2C(=O)N[C@@H](CC(=O)O)C(=O)O)[C@@H](C)CC)NC(=O)[C@H]([C@@H](C)CC)NC(=O)[C@@H]2C[C@@H]3CCCC[C@@H]3N2C(=O)[C@@H]2CCCN2C(=O)[C@H](CC(C)C)NC(=O)[C@H](CO)NC(=O)[C@H](CCCNC(=N)N)NC(=O)[C@H](CO)NC1=O
B9: ((N-Me)G)-IC+SRSLP-(Oic)-I-(Pen)+IPDK-OH (peptide)
peptide: [Sar]ICSRSLP[Oic]I[Pen]IPDK-OH
modifications: disulfide 3-11; N-terminus assumed
SMILES: CC[C@H](C)[C@H](NC(=O)CNC)C(=O)N[C@H]1CSSC(C)(C)[C@@H](C(=O)N[C@H](C(=O)N2CCC[C@H]2C(=O)N[C@@H](CC(=O)O)C(=O)N[C@@H](CCCCN)C(=O)O)[C@@H](C)CC)NC(=O)[C@H]([C@@H](C)CC)NC(=O)[C@@H]2C[C@@H]3CCCC[C@@H]3N2C(=O)[C@@H]2CCCN2C(=O)[C@H](CC(C)C)NC(=O)[C@H](CO)NC(=O)[C@H](CCCNC(=N)N)NC(=O)[C@H](CO)NC1=O
B10: ((2,4-dioxoimidazolidin-1-yl)acetic acid)-IC+SRSLP-(Oic)-I-(Pen)+IPD-OH (peptide)
peptide: X14-ICSRSLP[Oic]I[Pen]IPD-OH
modifications: disulfide 2-10
SMILES: CC[C@H](C)[C@H](NC(=O)CN1CC(=O)NC1=O)C(=O)N[C@H]1CSSC(C)(C)[C@@H](C(=O)N[C@H](C(=O)N2CCC[C@H]2C(=O)N[C@@H](CC(=O)O)C(=O)O)[C@@H](C)CC)NC(=O)[C@H]([C@@H](C)CC)NC(=O)[C@@H]2C[C@@H]3CCCC[C@@H]3N2C(=O)[C@@H]2CCCN2C(=O)[C@H](CC(C)C)NC(=O)[C@H](CO)NC(=O)[C@H](CCCNC(=N)N)NC(=O)[C@H](CO)NC1=O
B11: ((N-Me)G)-IC+SRSLP-(Oic)-I-(Pen)+IPD-(Ahx)-OH (peptide)
peptide: [Sar]ICSRSLP[Oic]I[Pen]IPD[Ahx]-OH
modifications: disulfide 3-11; N-terminus assumed
SMILES: CC[C@H](C)[C@H](NC(=O)CNC)C(=O)N[C@H]1CSSC(C)(C)[C@@H](C(=O)N[C@H](C(=O)N2CCC[C@H]2C(=O)N[C@@H](CC(=O)O)C(=O)NCCCCCC(=O)O)[C@@H](C)CC)NC(=O)[C@H]([C@@H](C)CC)NC(=O)[C@@H]2C[C@@H]3CCCC[C@@H]3N2C(=O)[C@@H]2CCCN2C(=O)[C@H](CC(C)C)NC(=O)[C@H](CO)NC(=O)[C@H](CCCNC(=N)N)NC(=O)[C@H](CO)NC1=O
B12: ((N-Me)G)-IC+SRS-((tBu)A)-P-((3S)-2-azaspiro[4.4]nonane-3-carboxylic acid)-I-(Pen)+IPD-OH (peptide)
peptide: [Sar]ICSRS[tBuAla]P[X15]I[Pen]IPD-OH
modifications: disulfide 3-11; N-terminus assumed
SMILES: CC[C@H](C)[C@H](NC(=O)CNC)C(=O)N[C@H]1CSSC(C)(C)[C@@H](C(=O)N[C@H](C(=O)N2CCC[C@H]2C(=O)N[C@@H](CC(=O)O)C(=O)O)[C@@H](C)CC)NC(=O)[C@H]([C@@H](C)CC)NC(=O)[C@@H]2CC3(CCCC3)CN2C(=O)[C@@H]2CCCN2C(=O)[C@H](CC(C)(C)C)NC(=O)[C@H](CO)NC(=O)[C@H](CCCNC(=N)N)NC(=O)[C@H](CO)NC1=O
B13: ((N-Me)G)-IC+SRSLP-(Oic)-I-(Pen)+IP-(PEG2(13 atoms))-OH (peptide)
peptide: [Sar]ICSRSLP[Oic]I[Pen]IP[PEG3]-OH
modifications: disulfide 3-11; N-terminus assumed
SMILES: CC[C@H](C)[C@H](NC(=O)CNC)C(=O)N[C@H]1CSSC(C)(C)[C@@H](C(=O)N[C@H](C(=O)N2CCC[C@H]2C(=O)NCCOCCOCCOCCC(=O)O)[C@@H](C)CC)NC(=O)[C@H]([C@@H](C)CC)NC(=O)[C@@H]2C[C@@H]3CCCC[C@@H]3N2C(=O)[C@@H]2CCCN2C(=O)[C@H](CC(C)C)NC(=O)[C@H](CO)NC(=O)[C@H](CCCNC(=N)N)NC(=O)[C@H](CO)NC1=O

The binders below were run against T1, Recombinant human MASP1 enzyme … (assay: cell-based or functional assay).

In order of falling “human MASP1 IC50” value:
1. B6  28 nM
2. B12  17.1 nM
3. B10  17 nM
4. B4  8.2 nM
5. B7  6.6 nM
6. AICSRSLP[Oic]I[Pen]IP[βDap]-OH (disulfide 3-11; also: C-terminal Dap bonded through its side-chain amino group) [AIC+SRSLP-(Oic)-I-(Pen)+IP-(*Dap)-OH]  5.1 nM
7. B13  4.5 nM
8. B1  4.3 nM
9. B2  4 nM
10. B9  3.8 nM
11. B8  1.9 nM
12. [Sar]ICSRSLP[Oic]I[Pen]IP[PEG4‑CH2CO2H (15 atoms)]-OH (disulfide 3-11) [((N-Me)G)-IC+SRSLP-(Oic)-I-(Pen)+IP-(PEG4-CH2CO2H (15 atoms))-OH]  1.8 nM
13. B3  1 nM
14. B5  0.72 nM
15. B11  0.41 nM

The binders below were run against Recombinant human MASP2 enzyme (fragment corresponding to amino acids 297-686, C-terminal His Tag) (human, UniProt O00187 297-686) (assay: cell-based or functional assay).
Chain of Recombinant human MASP2 enzyme (fragment corresponding to amino acids 297-686, C-terminal His Tag) (O00187 other isoform, or with tags, fused parts or gaps limits assumed): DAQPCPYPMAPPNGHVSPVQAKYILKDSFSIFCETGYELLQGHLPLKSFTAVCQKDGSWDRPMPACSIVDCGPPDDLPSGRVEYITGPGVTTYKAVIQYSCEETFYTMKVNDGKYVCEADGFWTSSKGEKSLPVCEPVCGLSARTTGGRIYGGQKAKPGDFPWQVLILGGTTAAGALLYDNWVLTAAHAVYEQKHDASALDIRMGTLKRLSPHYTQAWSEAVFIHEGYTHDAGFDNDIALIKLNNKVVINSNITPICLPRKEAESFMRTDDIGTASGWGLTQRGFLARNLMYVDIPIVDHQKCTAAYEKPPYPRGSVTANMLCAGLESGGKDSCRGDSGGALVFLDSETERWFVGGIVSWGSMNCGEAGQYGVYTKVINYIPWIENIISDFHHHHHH

In order of falling “human MASP2 IC50” value:
1. B12  261 nM
2. B9  260 nM
3. AICSRSLP[Oic]I[Pen]IP[βDap]-OH (disulfide 3-11; also: C-terminal Dap bonded through its side-chain amino group) [AIC+SRSLP-(Oic)-I-(Pen)+IP-(*Dap)-OH]  210 nM
4. B1  200 nM
5. B6  166 nM
6. B4  140 nM
7. B11  120 nM
8. B8  110 nM
9. B13  97 nM
10. [Sar]ICSRSLP[Oic]I[Pen]IP[PEG4‑CH2CO2H (15 atoms)]-OH (disulfide 3-11) [((N-Me)G)-IC+SRSLP-(Oic)-I-(Pen)+IP-(PEG4-CH2CO2H (15 atoms))-OH]  58 nM
11. B7  55 nM
12. B2  51 nM
13. B3  45 nM
14. B10  45 nM
15. B5  40 nM
